Residue numbers refer to the chain shown, from its start. Names may count otherwise. Each block holds one molecule with its values, some of them ahead of it.
Key:
[1] = molecular target: T1, human phosphoserine phosphatase (PSP) (Homo sapiens, UniProt P78330); assay: PNP-coupled phosphate release assay (MESG, […] nm); assay type: biochemical; conditions: read-out: wild-type
T1 construct: gene PSPH; EC 3.1.3.3
T1 sequence (P78330 1-225): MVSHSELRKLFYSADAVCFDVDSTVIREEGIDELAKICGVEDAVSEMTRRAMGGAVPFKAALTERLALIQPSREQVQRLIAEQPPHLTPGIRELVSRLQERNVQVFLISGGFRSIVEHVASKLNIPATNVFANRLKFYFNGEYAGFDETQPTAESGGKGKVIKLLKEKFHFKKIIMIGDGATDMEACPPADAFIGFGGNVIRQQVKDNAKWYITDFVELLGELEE

[2] = molecular target: T2, human phosphoserine phosphatase (PSP) (Homo sapiens, UniProt P78330, N133S); assay: PNP-coupled phosphate release assay (MESG, […] nm); assay type: biochemical; conditions: read-out: Asn133Ser
T2 construct: gene PSPH; EC 3.1.3.3
T2 sequence (P78330 1-225 N133S): T1 sequence (P78330 1-225) with N133S

[3] = substrate: N[C@@H](COP(=O)(O)O)C(=O)O; assay: purified protein; assay type: biochemical, Homo sapiens; conditions: 50 mM HEPES, 100 mM KCl, 3 mM MgCl2, pH 7.0, 37 °C, 170 μM acetyl-CoA in coupling system
[4] = molecular target: the molecule itself; assay: SEC; Superdex 75 Increase 5/150 GL, 50 mM HEPES pH 7.0, 100 mM KCl, room temperature, protein loaded at 10 uM; apparent mass from a calibration curve; monomer-dimer

IC50 [1]: 290 ± 20 µM
IC50 [2]: 250 ± 25 µM
Molecule: N[C@@H](CO)C(=O)O [L-serine]

B1: human phosphoserine phosphatase (PSP) (Homo sapiens) (protein)
chain: T1 sequence (P78330 1-225)
notes: EC 3.1.3.3
Km [3]: 42 ± 13 µM
kcat [3]: 38 ± 3 s⁻¹
kcat/Km [3]: 900000 M⁻¹ s⁻¹

B2: human phosphoserine phosphatase (PSP) (Homo sapiens; N133S) (protein)
chain: T1 sequence (P78330 1-225) with N133S
notes: EC 3.1.3.3
Km [3]: 31 ± 5 µM
kcat [3]: 28 ± 1 s⁻¹
kcat/Km [3]: 900000 M⁻¹ s⁻¹

B3: human phosphoserine phosphatase (PSP), wild-type (enzyme)
chain: SHSELRKLFYSADAVCFDVDSTVIREEGIDELAKICGVEDAVSEMTRRAMGGAVPFKAALTERLALIQPSREQVQRLIAEQPPHLTPGIRELVSRLQERNVQVFLISGGFRSIVEHVASKLNIPATNVFANRLKFYFNGEYAGFDETQPTAESGGKGKVIKLLKEKFHFKKIIMIGDGATDMEACPPADAFIGFGGNVIRQQVKDNAKWYITDFVELLGELEE
notes: phosphoserine phosphatase (PSP), human, EC 3.1.3.3; gene cloned in the NdeI/BamHI sites of pET28a; also called wt PSP; wild-type PSP; source: E. coli BL21(DE3), purified (published procedure)
stoichiometry N [4]: 2

B4: Asn133Ser variant of human phosphoserine phosphatase (PSP) (enzyme)
chain: B3 chain with N131S
notes: phosphoserine phosphatase (PSP), human, EC 3.1.3.3, with the patients' missense variant c.398A > G p.(Asn133Ser); mutated pET28a plasmid prepared by GenScript; Natural variant found in patients and in gnomAD; Same construct as m1 apart from the substitution; also called Asn133Ser PSP; N133S PSP; source: E. coli BL21(DE3), purified (> 90% purity, published procedure)
stoichiometry N [4]: 2

— publication PMC11139964, “L-serine deficiency: on the properties of the Asn133Ser variant of human phosphoserine phosphatase” (Scientific Reports, 2024)
